T1: Kp FimHLD
T1 chain: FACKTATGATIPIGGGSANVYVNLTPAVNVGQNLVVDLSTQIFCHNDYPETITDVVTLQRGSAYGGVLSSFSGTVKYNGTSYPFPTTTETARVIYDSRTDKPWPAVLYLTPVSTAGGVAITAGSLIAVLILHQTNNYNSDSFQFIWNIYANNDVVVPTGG

T2: Ec FmlHLD
T2 chain: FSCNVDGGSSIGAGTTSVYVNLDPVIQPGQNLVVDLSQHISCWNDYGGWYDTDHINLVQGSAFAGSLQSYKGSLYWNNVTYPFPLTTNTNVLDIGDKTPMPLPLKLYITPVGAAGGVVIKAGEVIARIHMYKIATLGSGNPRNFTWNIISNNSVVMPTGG


Tests used:
Assay in all cases: ELISA
[1] = molecular target: T1, Kp FimHLD
[2] = molecular target: Ec FimHLD
[3] = molecular target: T2, Ec FmlHLD

| Binder | EC50 [1] | EC50 [2] | EC50 [3] |
| --- | --- | --- | --- |
| Kp 1D09 (antibody, V domains shown) VH: EVQLQQPGAELVKPGASVKLSCKASGYTFTNYWIHWMKQRPGRGLEWIGRIEPNSGDTKYNEKIKSRATLTVDKPSSTAYMQLSSLTSEDSAVYYCARSGYDYPEAWGQGTTLTVSS VL: DIVLTQSPASLAVSPGQRATISCRASEGVEYYGTTLMQWYQQKPGQPPKLLIYAASNVESGVPARFSGSGSGTDFSLNIHPVEEDDIAMYFCQQSRKVSWTFGGGTKLEIKR | 0.0383 µg/mL | 0.0227 µg/mL |  |
| Kp 2B06 (antibody, V domains shown) VH: EVQLQQPGAELVKPGASVKLSCKASGYTFTNYWMHWVKHRPGRGLEWIGRIDPNSGGTKYNEKFKNKATLTVDNPSSTGYMQLSSLTSEDSAVYYCTRSGYDYPDYWGQGTTLTVSS VL: DIVLTQSPASLAVSLGQRATISCRASESVEYYGTSLMQWYQQKPGQPPKVLIYAASNVDSGVPPRFSGSGSGTDFSLNFHPVEEDDIAMYFCQQSRKVPWTFGGGTKLEIKR | 0.0169 µg/mL | 0.0092 µg/mL |  |
| 2G04 (antibody, V domains shown) VH: EVQLQQPGPELVKPGSSLKISCKASGYTFTDYFINWVKQRPGQGLDWIGWIFPGSGSTYYNDKFKGKATLTVDKSSSTAYMLLSSLTSEASAVYFCARWDSDSTYWYFDVWGTGTTVTVSS VL: QIVLTQSPALMAASPGEKVTITCSVNSSISSSTLHWYQQKSQTSPKPWIYGTSNLASGVPIRFSGSGSGTSYSLTISSMEAEDAATYYCQQWSTYPYTFGGGTKLEIKR | 0.0081 µg/mL | 0.0115 µg/mL | 2.89 µg/mL |
| Kp 2G02 (antibody, V domains shown) VH: EVQLQQSGPVLVKPGPSVKISCKASGFTFTDYYMHWVKQSHGKSLEWIGLVYPYNGGTYYNQKFKGKATLTVDTSSSTAYMELNSLTSEDSAVYYCVRLGNGSSNEWYFDVWGTGTTVTVSS VL: QIVLTQSPALMAASPGEKVTITCSVSSSISSYNLHWYQQKSETSPKPWIYGTSNLASGVPVRFSGSGSGTSYSLTISSMEAEDAATYYCQQWRTYPWTFGGGTKLEIKR | 0.0105 µg/mL | 0.015 µg/mL | 0.0144 µg/mL |
| Kp 2E08 (antibody, V domains shown) VH: EVQLQQPGAELAKPGASVKLSCKASGYNFTSYWMHWVKQRPGQGLEWIGLIHPNSGGTYYNEKFKSKATLTLDRSSSTAYMQLSSLTSEDSAVYYCARFEEEWGGYWYFDVWGTGTTVTVSS VL: QIVLTQSPALMAASPGEKVTITCSVSSSISSSNLHWYQQKSETSPKPWIYGTSNLASGVPVRFSGSGSGTSYSLTISSMEAEDAATYYCQQWSSYPYTFGGGTKLEIKR | 0.0149 µg/mL | 0.0092 µg/mL |  |
| Ec1 F7 (antibody, V domains shown) VH: EVQLQQPGPVLVKPGPSVKISCKASGFTFTDYFIHWVKQSHGKSLEWIGLVSPYNGGTYYNQQFKGKATLTVDTSSSTAYMDLNSLTSEDSAVYYCTRLLRGYWYFDVWGTGTTVTVSS VL: QIVLTQSPALMAASPGEKVTITCSVSSSIGSSNLHWYQQKSETSPKPWIYGTSNLASGVPVRFSGSGSGTSYSLTISSMEAEDAATYYCQQWSTYPYTFGGGTKLEIKR | 0.0078 µg/mL | 0.0109 µg/mL | 0.0083 µg/mL |
| Kp 1C01 (antibody, V domains shown) VH: EVQLQQPGPVLVKPGPSVKISCKASGFTFTDYYMHWVKQSHGKSLEWIGLVSPYNGGTFYNQKFKGKATLTVDTSSSTAYMELNSLTSEDSAVYYCARVGNSYVHYAMDYWGQGTSVTVSS VL: QIVLTQSPALMAASPGEKVTITCSVSSSISSSNLHWYQQKSETSPKPWIYGTSNLASGVPVRFSGSGSGTSYSLTISSMEAEDAATYYCQQWSNYPYTFGGGTKLEIKR | 0.0125 µg/mL | 0.0146 µg/mL | 0.886 µg/mL |
| Ec E7 (antibody, V domains shown) VH: EVQLQQSGAELVKPGASVKVSCKASGYSFTNYWVHWVKQRPGQGLEWIGRIYSSDGDSNYNQKFKGKATLTVDKSSSTAYMQLSSLTSEDSAVYYCAIEGNLYFDYWGQGTTLTVSS VL: DIVLTQSPASLAVSLGQRATISCRASQSVSTSSYSYMHWYQQKPGQPPKFLIKYASNLESGVPARFSGSGSGTDFTLNIHPVEEEDTATYYCQHSWEIPLTFGAGTKLKLKR |  | 0.0266 µg/mL |  |
| Ec A2 (antibody, V domains shown) VH: EVQLQQSGAEQVRPGASVKMSCKASGYTFTTYNMNWMKQTPGQGLEWIGVIYPGNGDISYNQKFKGKATLTVDKSSSTAYMQLSSLTSEDSAVYFCAREGDYGPWFAYWGQGTLVTVSA VL: QIVLTQSPAIMSASPGEKVTMTCRASSSVSSSYLHWYQQKSGASPKFWIYSTSKLASGVPARFSGSGSGTSYSLTISSVEAEDAATYYCQHYSRYPLTFGGGTKLEIKR | 0.0141 µg/mL | 0.0131 µg/mL |  |
| Ec3 B7 (antibody, V domains shown) VH: EVQLQQPGAELVRPGASVKMSCKASGYTFTIYNLHWVKQTPRQGLEWIGTIYPGDGDTSYNQKFKGKATLTVDKSSSTAYMQLSNLTSEDSAVYFCAREGDYGPWFAYWGQGTLVTVSA VL: QIVLTQSPAIMSASPGEKVTMTCRASSSVSSSYLHWYQQKSGASPKLWIYSSSNLASGVPARFSGSGSGTSYSLTINSVEAEDAATYYCQHYGSYPLTFGGGTKLEIKR | 0.0391 µg/mL | 0.0241 µg/mL |  |
| Ec F11 (antibody, V domains shown) VH: QVQLKESGPGLVAPSQSLSITCTVSGFSLTNYAISWVRQPPGKGLEWLGIIWTGGGTLYNSALKSRPSISKDNSKSQVFLKMNSLQTDDTARYYCARAYYSNYDWYFDVWDTGTTVTVSS VL: DIQMTQSPSSLSASLGDRVTISCSASQGISNYLNWYQQKPDGTVKLLIYYTSSLHSGVPSRFSGSGSGTDYSLTISNLEPEDIATYYCQQYSQVPYTFGGGTKLEIKR | 0.752 µg/mL | 0.0273 µg/mL |  |
| Ec C12 (antibody, V domains shown) VH: QVQLKQSGPGLVAPSQSLSITCTVSGFSLTNYAISWVRQPPGKGLEWLGIIWTGGGTLYNSALKSRLSISKDNSKSQVFLKMNSLQTDDTARYYCARAYYSNYDWYFDVWDTGTTVTVSS VL: DIQMTQSPSSLSASLGDRVTISCSASQGISNYLNWYQQKPDGTVKLLIYYTSSLHSGVPSRFSGSGSGTDYSLTISNLEPEDIATYYCQQYSQVPYTFGGGTKLEIKR |  | 0.0122 µg/mL |  |
| Kp2 2C07 (antibody, V domains shown) VH: EVKLVESGEGLVKPGGSLKLSCAASGFTFSSYAMSWVRQTPEKRLDWVAYISSGGDHIYYADTVKGRFTISRDNARNTLYLQMSSLKSEDTAMYYCTRDTGYYVSRYFDVWGTGTTVTVSS VL: DIVMTQSQKFMSTSVGDRVSVTCKASQNVVTNVAWYQQKSGQSPKVVIYSASFRSSGVPDRFTGSGSGTDFTLTISNVQSEDLAEYFCHQYNSHPLTFGGGTKLEIKR | 0.0186 µg/mL | 0.013 µg/mL |  |
| Kp 2C09 (antibody, V domains shown) VH: EVMLVESGEDLVKPGGSLKLSCIASGFTFSSYAMSWVRQTPEKRLEWVAYISSGGDYIYYTDTVKGRFTISRDNARNTLFLQMSSLKSEDTAMYYCTRDTGYYVSRYFDVWGTGTTVTVSS VL: DIVMTQSQKFMSTSVGDRVSVTCKASQNVGTNVAWYQQKPGQSPKALIYSASFRNSGVPDRFTGSGSGTDFTLTISNVQSEDLAEYFCHQYNNYPLTFGGGTKLEIKR | 0.0101 µg/mL | 0.0129 µg/mL |  |
| Kp 1B07 (antibody, V domains shown) VH: EVQLQQPGAELVKPGTSVKLSCKASGYTFTSYWMHWVKQRPGQGLEWIGMIHPNSGSTNYNEMFESKASLTVDKSSSTAYMQLSSLTSEDSAVYYCARIGYSGWGQGTSVTVSS VL: DIVMTQSPSSLSVSAGEKVTMSCKSSQSLLNGGNQKNYLAWYQQKPGQPPKVLINGASTRESGVPDRFTGNGSGTDFTLTISSVQAEDLAVYYCQNDHTYPLTFGAGTKLELKR | 0.0148 µg/mL |  |  |
| Kp 1E04 (antibody, V domains shown) VH: EVQLQQSGAELVKPGASVKLSCKASGYTFTSYWVHWVRQRPGQGLEWIGMIHPNSGSTNYNEKFKSKATLTVDKSSSTAYMQLSSLTSEDSAVYYCASYYYGSSYYFDYWGQGTTLTVSS VL: DIVMTQSPSSLTVTAGEKVTMSCKSSQSLLNSGNQKNYLTWYQQKPGQPPKLLIYWASTRESGVPDRFTGSGSGTDFTLTISSVQAEDLAVYYCQNDYSYPLTFGAGTKLELKR | 0.731 µg/mL |  |  |
| Kp 1B02 (antibody, V domains shown) VH: EVQLQQSGAELVRPGSSVKMSCKTSGYTFTFYGINWVKQRPGQGLEWIGYIYVGNGYSEYNEKFKVKATLTSDTSSSTAYMQLSGLTSEDSAIYFCARSDGYNYFDYWGQGTTLTVSS VL: QIVLTQSPAILSASPGEKVTMTCRASSSLHYMHWYQQKTGSSPKPWIYATSNLASGVPARFSGSGSGTSYSLTISRVEAEDTATYYCQQWSSNPPTFGAGTKLELKR | 0.0166 µg/mL | 0.024 µg/mL |  |
| Kp 2D07 (antibody, V domains shown) VH: EVQLQQSGPELVRPGASVKISCKASGYTFTDYYIHWLKQRPGQGLEWIGLIFPGSGSIYCNEKFKGKATLTVDKSSTTAYMLLSSLTSEDSAVYFCARWETTAWYFDVWGTGTTVTVSS VL: QIVLTQSPAILSASPGEKVTMTCRASLSVSYMHWYQQKPGSSPKPWIYATSNLASGVPARFSGSGSGTSYSLTVSRVEAEDAATYYCQQWRSYPYTFGGGTKLEIKR | 0.0144 µg/mL | 0.0129 µg/mL | 0.0178 µg/mL |
| Kp 2D04 (antibody, V domains shown) VH: EVQLQQPGGELVRPGSSVKMSCKTSGYTFTFYGINWVKQRPGQGLEWIGYIYVGNGYTEYNEKFKVKATLTSDTSSSTAYMQLSGLTSEDSAIYFCARSDGYNYFDYWGQGTTLTVSS VL: QIVLTQSPAILTASPGEKVTMTCRASSSVHYMHWYQQKPGSSPKPWIYATSNLASGVPARFSGSGSGTSYSLTISRVEAEDTATYYCHQWSSNPPTFGAGTKLEIKR | 0.0119 µg/mL | 0.0121 µg/mL |  |

— patent US20250304662A1 (published 2025)
